In paper doi:10.1101/2020.09.21.306357 one finds Kd data, which are given here for one substance.

For the assay, the target named is ACE2-Fc (soluble human ACE2 fused to human IgG Fc) (human) (UniProt Q9BYF1). In words: BLI.
ACE2-Fc (soluble human ACE2 fused to human IgG Fc) (human), sequence (Q9BYF1 18-738): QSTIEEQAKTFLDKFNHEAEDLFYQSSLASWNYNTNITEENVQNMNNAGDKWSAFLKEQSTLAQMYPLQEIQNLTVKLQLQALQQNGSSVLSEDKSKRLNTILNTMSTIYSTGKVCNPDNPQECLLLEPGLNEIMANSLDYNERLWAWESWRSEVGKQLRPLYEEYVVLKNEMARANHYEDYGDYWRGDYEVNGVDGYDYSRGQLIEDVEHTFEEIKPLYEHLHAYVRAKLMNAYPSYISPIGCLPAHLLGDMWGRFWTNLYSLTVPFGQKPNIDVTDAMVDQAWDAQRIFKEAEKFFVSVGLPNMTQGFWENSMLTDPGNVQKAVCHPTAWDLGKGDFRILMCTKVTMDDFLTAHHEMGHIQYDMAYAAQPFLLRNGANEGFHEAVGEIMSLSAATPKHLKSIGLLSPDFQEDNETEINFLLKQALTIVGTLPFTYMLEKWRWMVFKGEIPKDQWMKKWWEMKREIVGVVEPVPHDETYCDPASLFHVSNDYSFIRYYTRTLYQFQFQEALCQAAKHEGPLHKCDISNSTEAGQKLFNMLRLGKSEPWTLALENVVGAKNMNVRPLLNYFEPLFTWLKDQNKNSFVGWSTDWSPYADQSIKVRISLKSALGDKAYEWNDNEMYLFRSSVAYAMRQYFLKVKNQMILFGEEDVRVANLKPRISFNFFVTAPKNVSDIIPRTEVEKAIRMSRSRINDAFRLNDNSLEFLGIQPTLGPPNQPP

In the case of “SARS-CoV-1 S-Trimer (wild-type SARS-CoV S ectodomain fused to Trimer-Tag) (from UniProt P59594 14-1193) (domain or fragment)”, the dissociation constant Kd stood at 1.2 nM.
